Reference: paper PMC9234029, “Voltammetric lipase activity assay based on dilinolein and a modified carbon paste electrode” (Analytical and Bioanalytical Chemistry, 2022)

Substrate: CCCCC/C=C\C/C=C\CCCCCCCC(=O)OCC(O)COC(=O)CCCCCCC/C=C\C/C=C\CCCCC
Assay: differential pulse voltammetry of released linoleic acid, CoPC/MWCNT carbon paste electrode
Format: biochemical, Sus scrofa
Settings: sodium borate 0.1 M pH 9, room temperature, 25 min, Lineweaver-Burk plot, substrate in paraffin oil

B1: porcine pancreas lipase (PP-L) (Sus scrofa) (protein)
chain: SEVCFPRLGCFSDDAPWAGIVQRPLKILPWSPKDVDTRFLLYTNQNQNNYQELVADPSTITNSNFRMDRKTRFIIHGFIDKGEEDWLSNICKNLFKVESVNCICVDWKGGSRTGYTQASQNIRIVGAEVAYFVEVLKSSLGYSPSNVHVIGHSLGSHAAGEAGRRTNGTIERITGLDPAEPCFQGTPELVRLDPSDAKFVDVIHTDAAPIIPNLGFGMSQTVGHLDFFPNGGKQMPGCQKNILSQIVDIDGIWEGTRDFVACNHLRSYKYYADSILNPDGFAGFPCDSYNVFTANKCFPCPSEGCPQMGHYADRFPGKTNGVSQVFYLNTGDASNFARWRYKVSVTLSGKKVTGHILVSLFGNEGNSRQYEIYKGTLQPDNTHSDEFDSDVEVGDLQKVKFIWYNNNVINPTLPRVGASKITVERNDGKVYDFCSQETVREEVLLTLNPC
Km: 290 µM
